From patent publication US11844843 (DYNE THERAPEUTICS, dated 2023)
Residue numbers refer to the chain shown, from its start. In names and notes the source's numbering stands.

T1: recombinant cynomolgus monkey (Macaca fascicularis) TfR1 (cynomolgus monkey (Macaca fascicularis), UniProt Q5RDH6 87-760 (Pongo abelii entry), limits assumed)
T1 construct: Recombinant protein; also called cTfR1; cyTfR1
T1 chain: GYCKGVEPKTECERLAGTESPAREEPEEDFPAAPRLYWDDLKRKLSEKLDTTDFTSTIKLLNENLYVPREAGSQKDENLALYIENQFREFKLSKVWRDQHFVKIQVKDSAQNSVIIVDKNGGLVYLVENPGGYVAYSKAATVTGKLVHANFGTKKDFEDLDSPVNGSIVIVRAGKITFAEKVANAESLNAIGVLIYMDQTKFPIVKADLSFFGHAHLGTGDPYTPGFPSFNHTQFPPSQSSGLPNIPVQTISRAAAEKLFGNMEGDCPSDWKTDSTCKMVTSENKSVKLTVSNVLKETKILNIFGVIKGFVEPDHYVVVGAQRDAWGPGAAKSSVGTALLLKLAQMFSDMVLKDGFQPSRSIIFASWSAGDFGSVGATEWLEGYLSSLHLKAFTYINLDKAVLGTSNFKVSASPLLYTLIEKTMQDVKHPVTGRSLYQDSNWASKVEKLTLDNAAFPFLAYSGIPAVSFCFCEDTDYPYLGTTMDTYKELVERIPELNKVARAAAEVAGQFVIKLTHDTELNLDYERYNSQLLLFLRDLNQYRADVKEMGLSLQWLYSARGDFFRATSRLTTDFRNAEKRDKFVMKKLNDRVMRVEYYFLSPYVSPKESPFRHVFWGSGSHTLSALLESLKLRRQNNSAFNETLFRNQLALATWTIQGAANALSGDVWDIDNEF

B1: humanized anti-TfR Fab 3A4 VH3/Vκ4 (Fab, V domains shown)
VH: EVQLVQSGSELKKPGASVKVSCTASGFNIKDDYMYWVRQPPGKGLEWIGWIDPENGDTEYASKFQDRVTVTADTSTNTAYMELSSLRSEDTAVYYCTLWLRRGLDYWGQGTLVTVSS
VL: DIVMTQSPLSLPVTPGEPASISCRSSKSLLHSNGYTYLFWFQQRPGQSPRLLIYRMSNLASGVPDRFSGSGSGTDFTLKISRVEAEDVGVYYCMQHLEYPFTFGGGTKVEIKR
notes: also called 3A4 (VH3/Vk4)
B2: humanized anti-TfR Fab 3M12 VH3/Vκ3 (Fab, V domains shown)
VH: QVQLQESGPGLVKPSQTLSLTCSVTGYSITSGYYWNWIRQPPGKGLEWMGYITFDGANNYNPSLKNRVSISRDTSKNQFSLKLSSVTAEDTATYYCTRSSYDYDVLDYWGQGTTVTVSS
VL: DIQMTQSPSSLSASVGDRVTITCRASQDISNFLNWYQQKPGQPVKLLIYYTSRLHSGVPSRFSGSGSGTDFTLTISSLQPEDFATYYCQQGHTLPYTFGQGTKLEIKR
notes: also called 3M12 (VH3/Vk3)
B3: humanized anti-TfR Fab 3M12 VH4/Vκ2 (Fab, V domains shown)
VH: B2 VH with S23T, M49I
VL: B2 VL with Y87F
notes: also called 3M12 (VH4/Vk2)
B4: humanized anti-TfR Fab 5H12 VH5 (C33D)/Vκ4 (Fab, V domains shown)
VH: QVQLVQSGAEVKKPGASVKVSCKASGYSFTDYDINWVRQAPGQGLEWMGWIYPGSGNTRYSERFKGRVTITRDTSASTAYMELSSLRSEDTAVYYCAREDYYPYHGMDYWGQGTLVTVSS
VL: DIVMTQSPDSLAVSLGERATINCRASESVDGYDNSFMHWYQQKPGQPPKLLIFRASNLESGVPDRFSGSGSGTDFTLTISSLQAEDVAVYYCQQSSEDPWTFGQGTKLEIKR
notes: also called 5H12 (VH5-C33D/Vk4)
B5: conjugate of humanized anti-TfR Fab 3A4 VH3/Vκ4 with DMPK-targeting oligonucleotide ASO300 (Fab, V domains shown)
VH: B1 VH
VL: B1 VL
modifications: oligonucleotide ASO300 conjugated to the Fab via linker; residue and chain not stated
notes: also called 3A4 (VH3/Vk4) conjugate
B6: conjugate of humanized anti-TfR Fab 5H12 VH5 (C33D)/Vκ4 with DMPK-targeting oligonucleotide ASO300 (Fab, V domains shown)
VH: B4 VH
VL: B4 VL
modifications: oligonucleotide ASO300 conjugated to the Fab via linker; residue and chain not stated
notes: also called 5H12 (VH5-C33D/Vk4) conjugate
B7: 3-A4 mouse monoclonal anti-TfR antibody (antibody, V domains shown)
VH: EVQLQQSGAELVRPGASVKLSCTASGFNIKDDYMYWVKQRPEQGLEWIGWIDPENGDTEYASKFQDKATVTADTSSNTAYLQLSSLTSEDTAVYYCTLWLRRGLDYWGQGTSVTVSS
VL: DIVMTQAAPSVPVTPGESVSISCRSSKSLLHSNGYTYLFWFLQRPGQSPQLLIYRMSNLASGVPDRFSGSGSGTAFTLRISRVEAEDVGVYYCMQHLEYPFTFGGGTKLEIK
notes: Mouse monoclonal IgG; also called 3-A04
B8: 3-M12 mouse monoclonal anti-TfR antibody (antibody, V domains shown)
VH: DVQLQESGPGLVKPSQSLSLTCSVTGYSITSGYYWNWIRQFPGNKLEWMGYITFDGANNYNPSLKNRISITRDTSKNQFFLKLTSVTTEDTATYYCTRSSYDYDVLDYWGQGTTLTVSS
VL: DIQMTQTTSSLSASLGDRVTISCRASQDISNFLNWYQQRPDGTVKLLIYYTSRLHSGVPSRFSGSGSGTDFSLTVSNLEQEDIATYFCQQGHTLPYTFGGGTKLEIK
notes: Mouse monoclonal IgG
B9: 5-H12 mouse monoclonal anti-TfR antibody (antibody, V domains shown)
VH: QIQLQQSGPELVRPGASVKISCKASGYSFTDYCINWVNQRPGQGLEWIGWIYPGSGNTRYSERFKGKATLTVDTSSNTAYMQLSSLTSEDSAVYFCAREDYYPYHGMDYWGQGTSVTVSS
VL: DIVLTQSPTSLAVSLGQRATISCRASESVDGYDNSFMHWYQQKPGQPPKLLIFRASNLESGIPARFSGSGSRTDFTLTINPVEAADVATYYCQQSSEDPWTFGGGTKLEIK
notes: Mouse monoclonal IgG
B10: conjugate of humanized anti-TfR Fab 5H12 VH5 (C33Y)/Vκ3 with DMPK-targeting oligonucleotide ASO300 (Fab, V domains shown)
VH: B4 VH with D33Y
VL: B4 VL with M4L, G72R
modifications: oligonucleotide ASO300 conjugated to the Fab via linker; residue and chain not stated
notes: also called 5H12 (VH5-C33Y/Vk3) conjugate

Target: T2, recombinant human TfR1 (transferrin receptor protein 1) (human, UniProt P02786 89-760)
T2 construct: Recombinant protein in SPR and ELISA; they were assigned to this molecule; also called hTfR1; huTfR1
Assay: Biacore, d0; TfR1 species not stated

Row | Kd [nM] | Binder
1 | 1.5 | B1
2 | 0.345 | B2
3 | 0.396 | B3
4 | 0.991 | B4

Target: T2, recombinant human TfR1 (transferrin …)
Assay: Biacore, d25; TfR1 species not stated

Row | Kd [nM] | Binder
5 | 1.35 | B1
6 | 0.515 | B2
7 | 0.51 | B3
8 | 3.01 | B4

Target: T2, recombinant human TfR1 (transferrin …)
Assay: Table 14, Fab-ASO300 conjugate; method not named

Row | DMPK oligo conjugate binding [nM] | Binder
9 | 2.84 | B5
10 | 110 | B6

Target: T1, recombinant cynomolgus monkey (Macaca …)
Assay: Table 14, Fab-ASO300 conjugate; method not named

Row | DMPK oligo conjugate binding [nM] | Binder
11 | 7.59 | B5
12 | 10.2 | B6

Target: T2, recombinant human TfR1 (transferrin …)
Assay: Avg KD, antibody alone; method not stated in Table 11

Row | Kd [nM] | Binder
13 | 0.436 | B7
14 | 0.768 | B8
15 | 202 | B9

Target: T1, recombinant cynomolgus monkey (Macaca …)
Assay: as above

Row | Kd [nM] | Binder
16 | 2.32 | B7
17 | 5.18 | B8
18 | 12 | B9

Target: T2, recombinant human TfR1 (transferrin …)
Assay: kinetic analysis (Biacore), Table 7; TfR1 species not stated

Row | Kd [nM] | koff [s⁻¹] | kon [M⁻¹ s⁻¹] | Binder
19 | 1.5 | – | – | B1
20 | 0.345 | 8.34e-05 | 242000 | B2
21 | 0.396 | 9.98e-05 | 252000 | B3
22 | 0.991 | 0.000672 | 678000 | B4

Target: T2, recombinant human TfR1 (transferrin …)
Assay: Carterra LSA SPR, 25 C; IgG captured, hTfR1 as analyte; 1:1 fit
Description: Selected anti-TfR1 antibodies were tested for their binding affinity to human TfR1 for measurement of Ka (association rate constant). Kd (dissociation rate constant), and K_D (affinity). […] The binding experiment was performed on Carterra LSA at 25° C. An anti-mouse IgG and anti-human IgG antibody "lawn" was prepared on a HC30M chip by amine coupling. The IgGs were captured on the chip. Dilution series of hTfR1, cyTfR1, and hTfR2 were injected to the chip for binding (starting from 1000 nM, 1:3 dilution, 8 concentrations).
Binding data were referenced by subtracting the responses from a buffer analyte injection and globally fitting to a 1:1 Langmuir binding model for estimate of Ka (association rate constant), Kd (dissociation rate constant), and K_D (affinity) using the Carterra™ Kinetics software, 5-6 concentrations were used for curve fitting.

Row | Kd [nM] | kon [M⁻¹ s⁻¹] | Binder
23 | 0.436 | 447000 | B7
24 | 0.768 | 166000 | B8
25 | 208 | 66700 | B9

Target: T2, recombinant human TfR1 (transferrin …)
Assay: Table 14, unconjugated Fab, d9 (after 9 days at 40 C); method not named

Row | Binding affinity [nM] | Binder
26 | 0.46 | B1
27 | 1.49 | B2
28 | 0.5 | B3
29 | 92.3 | B4

Target: T1, recombinant cynomolgus monkey (Macaca …)
Assay: as above

Row | Binding affinity [nM] | Binder
30 | 878 | B1
31 | 15.6 | B2
32 | 5.01 | B3
33 | 0.63 | B4

Target: T2, recombinant human TfR1 (transferrin …)
Assay: ELISA, recombinant TfR1 coated, unconjugated Fab (row 'Fab binding affinity ELISA')

Row | EC50 [nM] | Binder
34 | 1.5 | B1
35 | 0.6 | B2
36 | 0.4 | B3
37 | 6 | B4

Target: T1, recombinant cynomolgus monkey (Macaca …)
Assay: as above

Row | EC50 [nM] | Binder
38 | 122 | B1
39 | 4.7 | B2
40 | 1.4 | B3
41 | 3.5 | B4

Target: T2, recombinant human TfR1 (transferrin …)
Assay: Table 14, unconjugated Fab, d0; method not named (values equal ELISA row of Table 13)

Row | Binding affinity [nM] | Binder
42 | 1.5 | B1
43 | 0.6 | B2
44 | 0.4 | B3
45 | 6 | B4

Target: T1, recombinant cynomolgus monkey (Macaca …)
Assay: as above

Row | Binding affinity [nM] | Binder
46 | 122 | B1
47 | 4.7 | B2
48 | 1.4 | B3
49 | 3.5 | B4

Target: T2, recombinant human TfR1 (transferrin …)
Assay: ELISA, recombinant TfR1 coated, Fab-ASO300 conjugate (row 'Conjugate binding affinity ELISA')

Row | EC50 [nM] | Binder
50 | 2.8 | B5
51 | 110 | B6
52 | 33.4 | B10

Target: T1, recombinant cynomolgus monkey (Macaca …)
Assay: as above

Row | EC50 [nM] | Binder
53 | 7.6 | B5
54 | 10.2 | B6
55 | 2.3 | B10
